Consider one molecule from PMC4342108.

Assay in all cases: SPR
Background: SPR reads the build-up and loss of mass on a sensor chip optically.

For one data set, the target named is T1, tCid1 (wild type) (Schizosaccharomyces pombe, UniProt O13833 33-405).
T1 sequence: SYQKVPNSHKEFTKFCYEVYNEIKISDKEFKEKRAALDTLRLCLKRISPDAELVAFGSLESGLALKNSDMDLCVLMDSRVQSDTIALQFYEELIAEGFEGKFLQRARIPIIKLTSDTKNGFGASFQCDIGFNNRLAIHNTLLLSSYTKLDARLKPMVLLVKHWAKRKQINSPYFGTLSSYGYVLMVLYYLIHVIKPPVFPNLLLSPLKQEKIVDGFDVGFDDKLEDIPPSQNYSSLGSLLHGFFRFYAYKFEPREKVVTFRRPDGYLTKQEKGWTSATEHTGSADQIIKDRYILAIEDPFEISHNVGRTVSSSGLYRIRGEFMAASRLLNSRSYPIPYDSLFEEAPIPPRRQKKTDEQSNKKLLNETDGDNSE

The target of a further data set is T2, tCid1 mutant 1 (Schizosaccharomyces pombe, UniProt O13833 33-405, K133A;R137A).
T2 sequence: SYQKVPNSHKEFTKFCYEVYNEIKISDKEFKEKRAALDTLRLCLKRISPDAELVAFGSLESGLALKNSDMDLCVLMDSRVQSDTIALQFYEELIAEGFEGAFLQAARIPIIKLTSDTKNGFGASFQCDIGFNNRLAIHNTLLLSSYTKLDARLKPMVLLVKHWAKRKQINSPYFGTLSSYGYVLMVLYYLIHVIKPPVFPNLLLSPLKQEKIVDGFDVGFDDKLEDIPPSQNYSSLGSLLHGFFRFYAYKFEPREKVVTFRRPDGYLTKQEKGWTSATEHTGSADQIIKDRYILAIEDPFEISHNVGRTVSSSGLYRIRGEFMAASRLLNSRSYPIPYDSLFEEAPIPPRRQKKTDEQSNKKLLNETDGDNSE

The target of the next data set is T3, tCid1 mutant 2 (Schizosaccharomyces pombe, UniProt O13833 33-405, K321A;R323A).
T3 sequence: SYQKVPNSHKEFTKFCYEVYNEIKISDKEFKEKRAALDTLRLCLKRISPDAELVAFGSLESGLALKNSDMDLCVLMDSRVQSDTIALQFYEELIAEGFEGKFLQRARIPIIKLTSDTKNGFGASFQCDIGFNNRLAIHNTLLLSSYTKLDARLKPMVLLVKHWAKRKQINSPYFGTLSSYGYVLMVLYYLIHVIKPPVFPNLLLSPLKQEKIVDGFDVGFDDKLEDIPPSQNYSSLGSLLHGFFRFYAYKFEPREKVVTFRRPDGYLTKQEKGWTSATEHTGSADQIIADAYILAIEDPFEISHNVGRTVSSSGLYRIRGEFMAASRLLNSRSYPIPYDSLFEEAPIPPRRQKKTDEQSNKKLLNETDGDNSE

The target in a further data set is T4, tCid1 mutant 3 (Schizosaccharomyces pombe, UniProt O13833 33-405, R277A;K282A).
T4 sequence: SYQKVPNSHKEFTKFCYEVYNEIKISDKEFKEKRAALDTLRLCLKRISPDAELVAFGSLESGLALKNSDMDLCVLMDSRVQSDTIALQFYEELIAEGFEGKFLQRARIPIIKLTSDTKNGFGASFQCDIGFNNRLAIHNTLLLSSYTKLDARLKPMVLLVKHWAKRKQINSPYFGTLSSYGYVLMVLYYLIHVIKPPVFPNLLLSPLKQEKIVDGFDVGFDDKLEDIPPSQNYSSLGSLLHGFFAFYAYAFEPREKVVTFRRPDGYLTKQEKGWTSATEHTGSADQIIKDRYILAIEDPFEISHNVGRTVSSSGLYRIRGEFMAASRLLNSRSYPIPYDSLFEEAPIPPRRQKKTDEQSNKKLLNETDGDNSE

The term Kd denotes the concentration at which binding is half-saturated. Low readings indicate higher affinity, high ones lower affinity.

With GAUUUGACGUUGGUUUUGACG (ssRNA) [21 nt SPR RNA], the dissociation constant (Kd) in the data set with tCid1 (wild type) was about 100 nM; with tCid1 mutant 1, about 200 nM; in the data set with tCid1 mutant 2 it was about 450 nM; in the data set with tCid1 mutant 3, about 410 nM.
